Results: the DeepSol protein solubility set

Test: soluble on expression in E. coli; label from the status in PepcDB or PDB records

Row | Sequence | soluble on expression in E. coli
1 | MKNIIIIGANGFTGRQILNDLSSKAQYKVTGCSLHPDILPKNGGNYHFITTDIRDEAVVKQLFKDVQPDVVINCSALSVPDYCETHHEEAWLTNVTAVEQLAHLCESYKSRFIHLSTDFVFDGKIDEKSGQLYTEKSLPAPVNYYGFTKWKGEEKVTEICSNYAIARVEIVYGKALPGQHGNIVQLVMNRLNAGQEIRVVSDQWRTPTYVGDVSAGVQHLVENAANGIFHICGEECLTIAEIAFQVADYMKLDRSLVHPATTEEMQEATPRPRFSGMSIAKARTILGYQPRKLKDILMEWKH | not soluble
2 | MGHERDWSLVQVALTDITARKKAEAYLEYLGKHDVLTKLHNRAFYSDELNRLERSALRPVSAIVIDLNGLKEANDKLGHDAGDALLRRVGEVLNGVVTAPNHAARIGGDEFAILLPGADKQVAAAMVDTVYELLKINNQFYSSAPLSLSLGVATTEAGETMESLVRRADMNMYEQKNALEHHHHHH | soluble
3 | MRKNILITGVHGYIGNALKDKLIEQGHQVDQINVRNQLWKSTSFKDYDVLIHTAALVHNNSPQARLSDYMQVNMLLTKQLAQKAKAEDVKQFIFMSTMAVYGKEGHVGKSDQVDTQTPMNPTTNYGISKKFAEQALQELISDSFKVAIVRPPMIYGAHCPGNFQRLMQLSKRLPIIPNINNQRSALYIKHLTAFIDQLISLEVTGVYHPQDSFYFDTSSVMYEIRRQSHRKTVLINMPSMLNKYFNKLSVFRKLFGNLIYSNTLYENNNALEIIPGKMSLVIADIMDETTTKDKA | not soluble
4 | MINSSMQFDRILASQPGISLIAEKRITRSASYFPDHFPKRPVLPMTVLLECKLNLAKEFIARAKYDRAYRISELRKIKMNEFVHPGDVVVCQVKVKQQMDDELILSYRCEVDGKRVCVVDIVLIPKGKLEHHHHHH | not soluble
5 | KDRSIIAMGAWLEVLSEEKDGNRLARHHEHGKIWKKPTRHEDIADFFPFGNPIHNNTMIMRRSVIDGGLRYNTERDWAEDYQFWYDVSKLGRLAYYPEALVKYRLHANQVSSKYSIRQHEIAQGIQKTARNDFLQSMGFKTRFDSLEYRQIKAVAYELLEKHLPEEDFERARRFLYQCFKRTDTLPAGAWLDFAADGRMRRLFTLRQYFGILHRLLKNR | not soluble
6 | MGSDKIHHHHHHKDDEESTSGYDPNKPIVLTDFYPPEGKLATQVILNGSNFGDSKENVKVFFNDKEASVISVKDDRMLVLAPKRASTIEDPECVVKVQVHEQIEEYKQTFDYYIQTTVTTLVGGSTSAQVNPTGTIPLSEAQFRANIDRCICVDQDKNVFFLVDNDGKFAAFMLNEEADKLISLKSDINALFNSPVLGYNSKDDIVYQFWANRDSHEVYYFDPKTDYAPTTAISSISWDDPNFPNIEGFGVWAAKCNFTMGPDGKMYSRMLGGNLVRIDVENARGENLTNGDLVGTKDGSAYGLVFDPQDENVFYFSNNDKHCIYKYDLRTKECACWAGQEGKSGYLDGPIGQAMFNKPGQMCVDSEGNIILTDTENHCIRKITMSTGYVSTLAGKPQNSGYVNGSAEDAQFKKPLGICIDNDDVMYIGDSENRAIRRLAVE | not soluble
7 | GSLNITENESISTAVIDAINSGATLKDINAIPDDMMDDIYSYAYDFYNKGRIEEAEVFFRFLCIYDFYNVDYIMGLAAIYQIKEQFQQAADLYAVAFALGKNDYTPVFHTGQCQLRLKAPLKAKECFELVIQHSNDEKLKIKAQSYLDAIQ | soluble
8 | MADRAEMFSLSTFHSLSPPGCRPPQDISLEEFDDEDLSEITDDCGLGLSYDSDHCEKDSLSLGRSEQPHPICSFQDDFQEFEMIDDNEEEDDEEEEEEEEEEEDGDRQGKAGGGPGSQALAGDSLIPSPSLEESHKLRPTTLHLTTLGAQDSLNNNNGGFTSAPPSSWQETVLRSPAQEPLKELPAPLLPAEEERHEVQSLARPGCDCEGNQPPEQPASSGGASPSSDPGIEADLRSHSSGGHEGRRSSQELSSPGSDSEDAGGARLGRMISSISETELELSSDGGSSSGRSSHLTNSIEEASSPASEPEPEPEPLHEPPRRPAFLPVGQDDTNSEYESGSESEPDLSEDADSPWLLSNLVSRMISEGSSPIRCPGQCLSPAPRLPEEAASQANSVPQDCQDPEAGPHVELVDMDTLCGPPPPAPAAPRLGPAQPGPCLFLSNPTRDTITPLWATPGRTARPGRSCSAACSEEEEEDEEEDEEDEEDAEDSVVPPGSRTTGSTAPLDASLVYDAVKYTLVVDEHTQLELVSLRRCAGLGNDSEEDSSCEASEEEAGATLLGSDQVPEDASPDSPDLTFSKKFLNVFVNSTSRSSSTESFGLFSCVVNGEEREQTHRAVFRFIPRHPDELELDVDDPVLVEAEEDDFWFRGFNMRTGERGVFPAFYAHAVPGPAKDLLGSKRSPCWVDRFDVQFLGSVEVP | soluble
9 | PAKLGYWKIRGLQQPVRLLLEYLGEKYEEQIYERDDGEKWFSKKFELGLDLPNLPYYIDDKCKLTQSLAILRYIADKHGMIGTTSEERARVSMIEGAAVDLRQGISRISYQPKFEQLKEGYLKDLPTTMKMWSDFLGKNPYLRGTSVSHVDFMVYEALDAIRYLEPHCLDHFPNLQQFMSRIEALPSIKAYMESNRFIKWPLNGWHAQFGGGDAPP | soluble
10 | MKHSHEEIRKIIPEMRRVQQIHFIGIGGAGMSGIAEILLNEGYQISGSDIADGVVTQRLAQAGAKIYIGHAEEHIEGASVVVVSSAIKDDNPELVTSKQKRIPVIQRAQMLAEIMRFRHGIAVAGTHGKTTTTAMISMIYTQAKLDPTFVNGGLVKSAGKNAHLGASRYLIAEADESDASFLHLQPMVSVVTNMEPDHMDTYEGDFEKMKATYVKFLHNLPFYGLAVMCADDPVLMELVPKVGRQVITYGFSEQADYRIEDYEQTGFQGHYTVICPNNERINVLLNVPGKHNALNATAALAVAKEEGIANEAILEALADFQGAGRRFDQLGEFIRPNGKVRLVDDYGHHPTEVGVTIKAAREGWGDKRIVMIFQPHRYSRTRDLFDDFVQVLSQVDALIMLDVYAAGEAPIVGADSKSLCRSIRNLGKVDPILVSDTSQLGDVLDQIIQDGDLILAQGAGSVSKISRGLAESWKN | soluble
11 | MGSDKIHHHHHHMTIAIIIATHGVAAEQLLKTTEMLIGEQENVATIDFVPGENAETIMEKYQAKLSGDLAHCDKVLFLVDTWGGSPFNAANRVSEGKDNMDIVTGVNVPMLVETFMARDDGPSLDELVAIALETGRTGVRALRYQEPETEPTAPTSEVPAQPAASQAEPQPAMVTPNQEGHLEIGLARIDDRLIHGQVATRWTKESRVSRIVVVSDEVAKDTVRATMLKSVAPPGVTAHVVNVDKMVRVYNNPEYAGERMMLLFTNPTDVLRLSDAGVDFKSINVGGMAYRDGKKMITNAVSVDDKDIAAFKALDAKGIELDVRKVSNDNRQYMMDLLKKNNLL | not soluble
12 | MSLKQKSVPMRHGTIYLYGLHSVHAALKNPKRVFEHLYITPNALKRLNIPESDLPCPITLCLPKQLDSFVGNDAVHQGIVLETEPLKPCQLSELTNTDLVIVMDQITDPHNVGAIMRSAVAFKAEALITTYRHSPQESGVLAKAASGALEMIHYITVQNLAETLQELHKAGFISFGLDSEGNHPLETTLTGEKIALVLGAEGKGLRKKTRENVCALTRLDMPGNIKSLNVSNAATIALYAAHKYLRGEGHHHHHH | soluble
13 | MAHHHHHHMEDKLDFTKLRDPFDMDEINRKLQEKVADDDPVQKAMPDPMDPKFRAPLRCSACGAVIEHAVRLLRPIIERQSERAARSGGVLPADALPKEYEMVDIFENLCGEVGRLYGLEVEKDKKRPTLRFSKSFGVSRLQGAWMPSFLTSTCEGVLDVEGEEKLAAMILGVARSEAEAGRGKVISMNPDQGIVDKVREMVCTKWEESAKGCDAYGVAIDPRETDNDDGAEEAASDL | not soluble
14 | MGQIQYSEKYFDDTFEYRHVVLPPEVAKLLPKNRLLSENEWRAIGVQQSRGWVHYAVHRPEPHIMLFRRPLNYQQQQENQAQNMLVK | soluble
15 | MSVLNPCMTCGACCAYFRVSFYWAEGDDASGRVPASLTEPVTPFLRCMAGTNQKQPHCKALIGTPGENVSCAIYENRPSTCREFSISGEGGEVNEACNRARARYGLPPLYKDMLFHTTADAATVELSRVQLPANLEHHHHHH | not soluble
16 | MGLGRQSLNIMTFSGQELTAIIKMAKSMVMADGKIKPAEIAVMTREFMRFGILQDQVDLLLKASDSIEASQAVALIARMDEERKKYVASYLGVIMASDGDIDDNELALWTLISTLCGLPTMTVMEAINNMKNL | soluble
